Here are results for one molecule from patent US20240059765A1 (ANNEXON, published 2024).

The target of this test is human C1q (human, UniProt P02745 23-245; P02746 28-253; P02747 29-245). Briefly: cell-based or functional assay.
human C1q, sequence (P02745 23-245 limits assumed, chain 1 of 3): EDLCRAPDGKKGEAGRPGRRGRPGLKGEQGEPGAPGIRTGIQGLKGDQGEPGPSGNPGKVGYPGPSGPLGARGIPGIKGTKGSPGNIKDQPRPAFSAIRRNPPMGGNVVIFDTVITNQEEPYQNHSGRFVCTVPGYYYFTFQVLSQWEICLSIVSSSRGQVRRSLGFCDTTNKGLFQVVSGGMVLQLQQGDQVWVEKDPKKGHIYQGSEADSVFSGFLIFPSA
human C1q, sequence (P02746 28-253 limits assumed, chain 2 of 3): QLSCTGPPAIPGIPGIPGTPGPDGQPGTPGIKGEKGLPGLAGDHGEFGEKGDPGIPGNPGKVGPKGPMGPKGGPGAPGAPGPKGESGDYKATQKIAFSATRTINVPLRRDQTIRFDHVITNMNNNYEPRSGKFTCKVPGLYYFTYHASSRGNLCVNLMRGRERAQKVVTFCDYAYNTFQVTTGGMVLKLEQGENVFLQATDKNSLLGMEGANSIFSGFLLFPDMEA
human C1q, sequence (P02747 29-245 limits assumed, chain 3 of 3): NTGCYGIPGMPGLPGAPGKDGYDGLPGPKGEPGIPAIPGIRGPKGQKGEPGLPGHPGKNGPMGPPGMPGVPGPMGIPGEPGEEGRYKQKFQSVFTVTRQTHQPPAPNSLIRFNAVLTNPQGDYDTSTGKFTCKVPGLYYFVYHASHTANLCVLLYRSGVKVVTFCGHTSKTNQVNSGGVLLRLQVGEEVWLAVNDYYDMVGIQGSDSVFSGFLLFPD

B1: FabA (Fab)
heavy: QVQLVQSGAELKKPGASVKVSCKSSGYHFTSYWMHWVKQAPGQGLEWIGVIHPNSGSINYNEKFESRVTITVDKSTSTAYMELSSLRSEDTAVYYCAGERDSTEVLPMDYWGQGTTVTVSSASTKGPSVFPLAPSSKSTSGGTAALGCLVKDYFPEPVTVSWNSGALTSGVHTFPAVLQSSGLYSLSSVVTVPSSSLGTQTYICNVNHKPSNTKVDKKVEPKSCDKTHT
light: DVQITQSPSSLSASLGERATINCRASKSINKYLAWYQQKPGKAPKLLIYSGSTLQSGIPARFSGSGSGTDFTLTISSLEPEDFAMYYCQQHNEYPLTFGQGTKLEIKRTVAAPSVFIFPPSDEQLKSGTASVVCLLNNFYPREAKVQWKVDNALQSGNSQESVTEQDSKDSTYSLSSTLTLSKADYEKHKVYACEVTHQGLSSPVTKSFNRGEC
With B1, the “IC50 of block of the classical pathway (Weislab ELISA, IgM-coated wells, C5b-9 detection)” value is not above 0.3 µg/mL.
